The supplement of paper PMC9170038

How the values were obtained:
[1] = test system: MS2 coat protein; experiment: apparent KD of MS2 coat protein; designed switch direction (-1 OFF switch, 1 ON switch): 1; higher = weaker reporter binding; conditions: Eterna round: R98
Method: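 RNA-MaP: designed FMN/MS2 RNA switches (84 nt design region) are transcribed on-chip within common flanks and titrated with SNAP-549-labelled MS2 coat protein (about 1-3000 nM) in 100 mM Tris pH 7.5, 80 mM KCl, 4 mM MgCl2, without or with 200 uM FMN. Median apparent KD per design; activation ratio = KD,OFF / KD,ON.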

[2] = test system: MS2 coat protein; experiment: apparent KD of MS2 coat protein, switch ON state; designed switch direction (-1 OFF switch, 1 ON switch): 1; higher = weaker reporter binding; conditions: FMN input: 0 or 200 uM; Eterna round: R93 (includes R88 designs)
How it was run: (§1)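 Values are apparent KD, taken as the median for each design of fits to normalised binding curves from individual clusters. The designed RNA switches were transcribed on-chip from Illumina sequencing clusters and exposed to SNAP-549-labelled MS2 coat protein at twofold increasing amounts from 0.7 or 1.5 nM to 3 µM. Titration used 100 mM Tris-HCl pH 7.5, 80 mM KCl and 4 mM MgCl2, without or with constant ligand.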

[3] = test system: MS2 coat protein; experiment: apparent KD of MS2 coat protein, switch OFF state (with FMN for OFF switches, without FMN for ON switches); designed switch direction (-1 OFF switch, 1 ON switch): 1; higher = weaker reporter binding; conditions: FMN input: 0 or 200 uM; Eterna round: R93 (includes R88 designs)
How it was run: as §1

Row | Sequence | apparent KD of MS2 coat protein ([1]; input ligand: FMN 200 uM) [nM] | apparent KD of MS2 coat protein ([1]; input ligand: none) [nM] | apparent KD of MS2 coat protein [2] [nM] | apparent KD of MS2 coat protein [3] [nM]
1 | AAAACAUGAGGAUCACCCAUGUAAAGAUCGGUUAAUAGAAGUGAGGAUAUACAAAAUUUUAGGUAGUAGAAGGCACAGGGUACA [JR_SSNG3_Sub046] | 31.5 | 33 | – | –
2 | AAAACAUGAGGAUCACCCAUGUAAAGAUCGGUUAAUAGAAGUGAGGAUAUGCUUAAAAUAAGGUAGCAGAAGGCACUGGGUACA [JR_SSNG3_Sub040] | 27.8 | 23.4 | – | –
3 | AAAACAUGAGGAUCACCCAUGUAUUGAACGGUUAAUAAAAGUGAGGAUAUACAAAAUUUUAUAUAGUAGAAGGCACUGGGUACA [JR_SSNG3_Sub009] | 20.8 | 21.2 | – | –
4 | AAAUAAAAUAUAGGAUAUGGAAACAUGAGGAUCACCCAUGUAUGAUAAGAUAAAUAAUGAUAUAGCCAGAAGGAUAAAAUAUAA [LRO006_SS NG 2] | 42.7 | 33 | – | –
5 | ACUGUCGCGUGAGGAUAUGGUCUGCAGUGCUGACCAGAAGGCAUGUCGAUAGACAUGAGGAUCACCCAUGUGGUUAGGGCGGAA [salish99_SSNG1_R02_019] | 194 | 298 | – | –
6 | AGAACAUGAGGAUCACCCAUGUGAAGGUCGGCGUAUAAGGGUGAGGAUAUGCUUAAAAUAAGGAAGCAGAAGGUACUUGGUGCG [SameState #80 NG3] | 75.3 | 165 | – | –
7 | AUUACAUGAGGAUCACCCAUGUACAGAACGUUUCAUUAAAGUGAGGAUAUACGAAAUUUAAAAGCGUAGAAGGCACUGGGUACA [SameState #43 NG3] | 24.2 | 27.8 | – | –
8 | GAUGACAUAGUACAGGAUAUAUGAAUAGUCACAUGAGGAUCACCCAUGUGCAUUUAUAUGCGCACAUAGAAGGGUGGUAGUGAUC [Mat - Same state - Malcolm Mod - D126] | – | – | 79.9 | 49.8
9 | GCAGGGCCGUACUAGGAUAUGGGUGUAAAGACAUGAGGAUCACCCAUGUGAUGGCAAAACAAAGCUCAGAAGGAGUCGCGGCCCA [Cemavebi] | – | – | 20.7 | 129
10 | GCAUACAUUCGAGGAUAUCGGUGAACAAAUUAGCGAGAAGGCGAUAUAAUUUUUAAACUUAUUGACAUGAGGAUCACCCAUGUA [JR_SSNG1_Sub011] | 20.5 | 24.8 | – | –
11 | GCGGUGCAGGUACAGGAUAUGUUGCUCGUAACAUGAGGAUCACCCAUGUACCUAUGAGAUUAAAUGCAGAAGGGUGCACACCACG [Oneratle] | – | – | 47.2 | 574
12 | GGAAAACAUGAGGAUCACCCAUGUGAAAACGUGGGAGGAUAUGCAUGGAAACCAUACUGUGCAGAAGGCCCAUGUC [EteRNA is fun!] | – | – | 17.2 | 59.4
13 | GGAAAUAAAAGAGAGGAUAUCCAAAGGAAAACAUGAGGAUCACCCAUGUAAAAGGAAGGAAACUGGGAGAAGGCUCAAAAUAAGG [salish99-ss2-010] | – | – | 18.7 | 32.2
14 | GGACAUGUCGUUUACAUGAGGAUCACCCAUGUCGAUGGACAUGAGGAUAUGGAUCCGAAUCGGAUCCAGAAGGCAUGCAUGUCC [SameState #7 NG3] | 17.9 | 45.2 | – | –
15 | GGACGUCACAUAAACAUGAGGAUCACCCAUGUCAAAAGACAUGAGGAUAUGGAUGCGAAACGCAUCCAGAAGGCAUGGACGUCC [EliMod 4 - Jieux - Same State NG 3] | 57.3 | 728 | – | –
16 | GGACUCACUUGAGGAUAUCGAGUGGAUAACACUCGAGAAGGCAGGGAAACCUGAGGAUCACCCAGGUAAGAGUCCAAUAAUAAA [Same State NG1 - A3C, U17G Submission 2D] | 19.9 | 42.1 | – | –
17 | GGAGACCUCACAGGAUAUGCUGGACUUUGUCCAGCAGAAGGGUGAAAACAUGAGGAUCACCCAUGUAUGGUCUCCAAAUUUAAU [Denovo 57] | 30.4 | 632 | – | –
18 | GGAGCCGGCACUGAGGAUAUUCAUAUUAAAACAUGAGGAUCACCCAUGUAGGCCAGAAGGCCUUGGGAGAAGGCAGGUCGGCUCG [Arinin] | – | – | 16.5 | 363
19 | GGGAAGAAGAGAGAGGAUAUCCAAAGGAAAACAUGAGGAUCACCCAUGUAAAAGGUAGGAAAUUGGGAGAAGGCUCAAAAGAGAG [salish99-ss2-034] | – | – | 20.6 | 40.8

Row | Sequence | apparent KD of MS2 coat protein ([1]; input ligand: FMN 200 uM) [nM] | apparent KD of MS2 coat protein ([1]; input ligand: none) [nM] | apparent KD of MS2 coat protein [2] [nM] | apparent KD of MS2 coat protein [3] [nM]
20 | GGGAGACAUGAGGAUCACCCAUGUGAGAAGAGGCGAGGAUAUCGAAAGAAAGAAGAGAAACGAGAAGGCGCGAGGC [salish99-SS1-063] | – | – | 37.5 | 53.6
21 | GGGAGGAAGAGAGAGGAUAUCCAAAGGAAAACAUGAGGAUCACCCAUGUAAAAGGUAGGAAAUUGGGAGAAGGCUCAAGAGAAUG [salish99-ss2-055] | – | – | 24.1 | 28.3
22 | GGUACAGCUAGUUAGGAUAUCAGGUGUAAGACAUGAGGAUCACCCAUGUCCUAAGAACAGGUAACUGAGAAGGAACAGGGCGUCC [JR_SS002_Sub415] | – | – | 27.3 | 90
23 | GGUUUCAGGAUAGGAUAUGGCGUGACAUGGCGGCCAGAAGGAUCCUCGGGAACAUGAGGAUCACCCAUGUGACCGUGUCGAGUC [Biveedve] | 190 | 741 | – | –
24 | GUAGAACAUGAGGAUCACCCAUGUGAAGACGCAUGAGGAUAUAUAAGUAAAUAGCAUAAGAUAGAAGGCAUGAUAA [JR_SS001_Sub1702] | – | – | 76 | 113
25 | GUAGAACAUGAGGAUCACCCAUGUGAGUACAGUGUAGGAUAUGGGCAUGAGAAGUCAUUUCUAGAAGGGCAAAUAA [Raatbiin] | – | – | 207 | 112
26 | GUAGACAUAGUUCAGGAUAUAUGAAUAGUCACAUGAGGAUCACCCAUGUCCAUUUAUAUGGGCACAUAGAAGGGAGGUAGUUAAC [Mat - Same state - Malcolm Mod - D123] | – | – | 891 | 1140
27 | UAAGUACAUGAGGAUCACCCAUGUUGGAAUAGAGCAGGAUAUGUGCAGAGGGAAAUAAAAACAGAAGGGCUAAGAA [Same State #3] | – | – | 25.9 | 33
28 | UAAUAAUAAACCAAGGAUAUGGAGUAUAGAACAUGAGGAUCACCCAUGUGUAGCGUGGAAUAGUACCAGAAGGUGGAGUGAAAUG [JR_SS002_Sub1002] | – | – | 39.1 | 49.8
29 | UAGGGAACAGGGUAGGAUAUGCAUGGUCGUACAUGAGGAUCACCCAUGUAGCCUAGAAAAUAAAUGCAGAAGGGCCAAAAGAAAA [Raritea] | – | – | 39.8 | 67.1
30 | UAUUAUUACACGAAGGAUAUCGAUAAUAGUACAUGAGGAUCACCCAUGUUCAAAUCAUUUUAGUACGAGAAGGUCGAGGGUAAAG [JR_SS002_Sub710] | – | – | 19.4 | 23.4
31 | UGCAGGAAGAGAGAGGAUAUCCAAAGGAAAACAUGAGGAUCACCCAUGUAAAAGGUAGGAAAUUGGGAGAAGGCUCAAGAGAGAG [salish99-ss2-098] | – | – | 33.1 | 28.3
32 | UGCCAAUUGGCACAGGAUAUGAGCAUGCUCACAUGAGGAUCACCCAUGUGAUUACCAACGCAAUAUCAGAAGGGUGCCCUCGUCA [Relageor] | – | – | 32.1 | 50.4
33 | UGGAGACAUGAGGAUCACCCAUGUGAGAAGAGGCGAGGAUAUCGAAAAAAAAAAAAAAAACGAGAAGGCGCGAGAU [salish99-SS1-008] | – | – | 25.9 | 22.1
34 | UGGAGACAUGAGGAUCACCCAUGUGAGAAGAGGCGAGGAUAUCGAAAGAAAGAAGAGAAACGAGAAGGCGCGAGCC [salish99-SS1-048] | – | – | 36.2 | 49.9
35 | UGGAGACAUGAGGAUCACCCAUGUGAGAAGAGGCGAGGAUAUCGAAAGAAAGAAGAGAAACGAGAAGGCGCGAGGC [salish99-SS1-047] | – | – | 43.3 | 27.6
36 | UGGAGACAUGAGGAUCACCCAUGUGAGAAGAGGCGAGGAUAUCGAAAGAAAGAAGAGAAACGAGAAGGCGCGAGUU [salish99-SS1-035] | – | – | 27.2 | 41.6
37 | UUACAGUGCGGGUAGGAUAUGUAGGGUGGUACAUGAGGAUCACCCAUGUAUCCACCCUUCGACCGGCAGAAGGGCCUGUCACUAC [Atarzale] | – | – | 12 | 12.8
